Measured values as given in patent publication US20220242939A1.

Experiments:
[1] = target: recombinant full-length ApoE4 (aa 1-299; SEQ ID NO:45; Abcam cat. no. ab50243) (human) (UniProt P02649); assay: direct ELISA; proteins coated at 0.1 uM, BSA peptides at 1 ug/ml; antibody in 3-fold dilutions from 3000 ng/ml; blank reduced OD 450 nm
[2] = target: recombinant C-terminal ApoE fragment A199-HIS (ApoE-A199-H299-10xHIS) (human) (UniProt P02649); assay: as above
[3] = target: recombinant full-length ApoE4 (aa 1-299; SEQ ID NO:45; Abcam cat. no. ab50243) (human) (UniProt P02649); assay: direct ELISA, target coated at 1 ug/ml, reference antibody in 3-fold dilutions from 1000 ng/ml, OD 450 nm
[4] = target: recombinant C-terminal ApoE fragment G200-HIS (ApoE-G200-H299-10xHIS) (human) (UniProt P02649); assay: as above
Chain of recombinant C-terminal ApoE fragment G200-HIS (ApoE-G200-H299-10xHIS) (human) (P02649 other isoform, or with tags, fused parts or gaps limits assumed): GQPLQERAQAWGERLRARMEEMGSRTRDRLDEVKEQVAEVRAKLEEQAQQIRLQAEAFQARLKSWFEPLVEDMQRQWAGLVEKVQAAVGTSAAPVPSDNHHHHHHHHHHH

[5] = target: His-tagged recombinant full-length ApoE4, 10xHIS-ApoE4(1-299) (human) (UniProt P02649); assay: direct ELISA, target coated at 1 ug/ml, antibody in 3-fold dilutions from 500 ng/ml, OD 450 nm
Chain of His-tagged recombinant full-length ApoE4, 10xHIS-ApoE4(1-299) (human) (P02649 other isoform, or with tags, fused parts or gaps limits assumed): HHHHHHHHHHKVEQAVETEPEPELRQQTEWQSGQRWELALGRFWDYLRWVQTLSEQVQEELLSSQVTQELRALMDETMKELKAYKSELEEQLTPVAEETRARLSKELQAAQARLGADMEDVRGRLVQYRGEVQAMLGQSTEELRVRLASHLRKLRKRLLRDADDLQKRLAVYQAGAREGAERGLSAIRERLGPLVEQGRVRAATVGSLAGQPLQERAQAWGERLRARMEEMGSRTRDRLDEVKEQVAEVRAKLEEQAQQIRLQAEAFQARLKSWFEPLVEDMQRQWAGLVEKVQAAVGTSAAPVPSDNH

[6] = target: recombinant C-terminal ApoE fragment G200-HIS (ApoE-G200-H299-10xHIS) (human) (UniProt P02649); assay: as above
[7] = target: recombinant full-length ApoE4 (aa 1-299; SEQ ID NO:45; Abcam cat. no. ab50243) (human) (UniProt P02649); assay: direct ELISA; proteins coated at 0.1 uM, BSA peptides at 1 ug/ml; antibody in 3-fold dilutions from 3000 ng/ml; blank reduced OD 450 nm; remark: listed apart in the source
[8] = target: recombinant C-terminal ApoE fragment L198-HIS (ApoE-L198-H299-10xHIS) (human) (UniProt P02649); assay: as above
Chain of recombinant C-terminal ApoE fragment L198-HIS (ApoE-L198-H299-10xHIS) (human) (P02649 other isoform, or with tags, fused parts or gaps limits assumed): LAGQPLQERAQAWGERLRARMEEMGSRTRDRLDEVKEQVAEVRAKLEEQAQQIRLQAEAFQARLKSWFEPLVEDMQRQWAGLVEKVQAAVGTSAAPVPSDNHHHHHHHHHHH

[9] = target: recombinant full-length ApoE4 (aa 1-299; SEQ ID NO:45; Abcam cat. no. ab50243) (human) (UniProt P02649); assay: direct ELISA, second protocol; proteins coated at 0.1 uM, BSA peptides at 1 ug/ml; antibody in 3-fold dilutions from 3000 ng/ml; blank reduced OD 450 nm
[10] = target: recombinant C-terminal ApoE fragment G200-HIS (ApoE-G200-H299-10xHIS) (human) (UniProt P02649); assay: as above

Chain of recombinant full-length ApoE4 (aa 1-299; SEQ ID NO:45; Abcam cat. no. ab50243) (human) (P02649 19-317 C130R limits assumed): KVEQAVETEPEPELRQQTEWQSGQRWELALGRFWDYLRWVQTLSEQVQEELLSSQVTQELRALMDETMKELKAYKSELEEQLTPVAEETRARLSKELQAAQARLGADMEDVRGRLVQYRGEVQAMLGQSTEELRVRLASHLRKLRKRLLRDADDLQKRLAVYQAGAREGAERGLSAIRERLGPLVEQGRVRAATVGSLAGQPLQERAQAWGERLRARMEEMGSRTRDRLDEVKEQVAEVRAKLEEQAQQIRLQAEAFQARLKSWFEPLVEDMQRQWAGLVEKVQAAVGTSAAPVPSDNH
Chain of recombinant C-terminal ApoE fragment A199-HIS (ApoE-A199-H299-10xHIS) (human) (P02649 other isoform, or with tags, fused parts or gaps limits assumed): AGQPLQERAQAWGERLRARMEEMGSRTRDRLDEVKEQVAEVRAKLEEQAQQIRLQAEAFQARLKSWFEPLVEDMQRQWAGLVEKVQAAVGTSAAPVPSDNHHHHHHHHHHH

- EC50 (read off the curve) [1]: 6 ng/mL
- EC50 (read off the curve) [2]: 5 ng/mL
- EC50 (read off the curve) [3]: 4 ng/mL
- EC50 (read off the curve) [4]: 5 ng/mL
- EC50 (read off the curve) [5]: 4 ng/mL
- EC50 (read off the curve) [6]: 4 ng/mL
- EC50 (read off the curve) [7]: 8 ng/mL
- EC50 (read off the curve) [8]: 2 ng/mL
- EC50 (read off the curve) [9]: 4 ng/mL
- EC50 (read off the curve) [10]: 4 ng/mL
Substance: reference anti-ApoE C-terminal antibody ApoE E-8 mouse monoclonal (Santa Cruz Biotechnology, cat. no. sc-393302)
